# Reference: patent US20020192789A1 (published 2002)
# Target: T1, streptavidin (UniProt P22629 37-163, limits assumed)
# T1 construct: Commercial immobilized streptavidin; the construct is not described; also called Sv; immobilized streptavidin
# Experiment: phage ELISA, phage bound to immobilized streptavidin
# T1 sequence (P22629 37-163 limits assumed): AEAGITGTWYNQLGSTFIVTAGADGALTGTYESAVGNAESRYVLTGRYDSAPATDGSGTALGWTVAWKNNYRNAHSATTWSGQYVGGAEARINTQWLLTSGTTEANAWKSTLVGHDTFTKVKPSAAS
row,Binder,binding result
1,"phage isolate 5-A01 display polypeptide (other, not shown: M13 phage gene III protein; the display polypeptide is fused to its N-terminus) AEWHPQFSSPSASRPSEGPCHPQFPRCYIENLDEFRPGGSGGDRMYQLDKTGFMIGAQSDGGGSTEHAEGGSADPSYIEGRIVGSA",binds
2,"phage isolate 5-A08 display polypeptide (other, The printed 13-mer is used instead; also called 05-A08; not shown: M13 phage gene III protein; the display polypeptide is fused to its N-terminus) AEWHPQFSSPSASRPSEGPCHPQFPRCYIENLDEFRPGGSGGDMFSEEDRMMQMQGAQSDGGGSTEHAEGGSADPSYIEGRIVGSA",binds
3,"phage isolate 5-A11 display polypeptide (other, The printed 13-mer is used instead; also called 05-A11; not shown: M13 phage gene III protein; the display polypeptide is fused to its N-terminus) AEWHPQFSSPSASRPSEGPCHPQFPRCYIENLDEFRPGGSGGDLNDVYSERMAMWGAQSDGGGSTEHAEGGSADPSYIEGRIVGSA",binds
4,"phage isolate 5-B05 display polypeptide (other, The printed 13-mer is used instead; also called 05-B05; not shown: M13 phage gene III protein; the display polypeptide is fused to its N-terminus) AEWHPQFSSPSASRPSEGPCHPQFPRCYIENLDEFRPGGSGGSLDDDRTVSPKFWGAQSDGGGSTEHAEGGSADPSYIEGRIVGSA",binds
5,"phage isolate 5-H11 display polypeptide (other, The printed 13-mer is used instead; also called 05-H11; not shown: M13 phage gene III protein; the display polypeptide is fused to its N-terminus) AEWHPQFSSPSASRPSEGPCHPQFPRCYIENLDEFRPGGSGGMGDDDDKIYVYKTGAQSDGGGSTEHAEGGSADPSYIEGRIVGSA",binds
6,"phage isolate 5-F08 display polypeptide (unselected control) (other, not shown: M13 phage gene III protein; the display polypeptide is fused to its N-terminus) AEWHPQFSSPSASRPSEGPCHPQFPRCYIENLDEFRPGGSGGAVLSNVMHSDDWTGAQSDGGGSTEHAEGGSADPSYIEGRIVGSA",binds

# Target: recombinant light chain enterokinase (Novagen, Madison, Wis.) (UniProt P98072 801-1035)
# Experiment: cell-based or functional assay
# recombinant light chain enterokinase (Novagen, Madison, Wis.), sequence (P98072 801-1035 limits assumed): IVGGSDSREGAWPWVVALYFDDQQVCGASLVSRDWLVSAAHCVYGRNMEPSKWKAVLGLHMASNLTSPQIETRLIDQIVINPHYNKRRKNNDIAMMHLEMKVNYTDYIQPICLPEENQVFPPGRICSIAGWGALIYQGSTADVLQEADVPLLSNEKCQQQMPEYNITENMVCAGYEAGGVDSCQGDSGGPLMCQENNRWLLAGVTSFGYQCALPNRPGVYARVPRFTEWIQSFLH
row,Binder,"test peptide rate (Va), in competition with reference peptide GDDDDK-βNA"
1,GDDDDKIYV [GDDDDKIYV (positive control test peptide)],0.028
2,DINDDRSLF,0.18
3,GNYTDRMFI,0.038
